Consider three molecules from US20220324954A1 (SHANGHAI NOVAMAB BIOPHARMACEUTICALS, published 2022).

As usually defined, the IC50 is the concentration needed to halve the response being measured.

Experiment [1] addresses T1, human VEGFA (human, UniProt P15692-4 27-191, limits assumed, biotinylated (sites not given) in the ELISA assays). The experiment can be described thus: cell-based or functional assay.
The target in experiment [2] is T2, human VEGFB (human, UniProt P49765-2 22-188, limits assumed, biotinylated (sites not given)).
T2 construct: also called Biotin-HVEGFB
T2 sequence (looked up): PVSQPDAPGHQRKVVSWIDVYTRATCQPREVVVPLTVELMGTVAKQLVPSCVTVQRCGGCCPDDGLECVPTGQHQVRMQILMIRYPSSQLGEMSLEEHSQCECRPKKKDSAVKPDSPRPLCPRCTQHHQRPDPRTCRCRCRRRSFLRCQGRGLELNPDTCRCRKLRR
The experiment can be described thus: ELISA, antibody coated, biotinylated ligand, SA-HRP. The protocol:
(§1) ELISA was used to verify whether the candidate antibodies could cross-react with VEGF homologous proteins. (1) 1 ug/mL antibody to be measured was added to the ELISA plate and coated overnight at 4° C. […] (4) After washing with PBST for 5 times, 100 uL diluted SA-HRP (1:5000 diluted) was added at 37° C. and incubated for 1 hour; (5) After washing with PBST for 5 times, TMB solution (100 uL) was added and developed at 37° C. for 10 min, add 2M H₂SO₄ (50 uL/well) was added to terminate the reaction, and the absorption value at 450 nm wavelength was measured with a microplate reader.

For experiment [3], the target named is T3, human VEGFC (human, UniProt P49767 112-227, limits assumed, biotinylated (sites not given)).
T3 construct: also called Biotin-HVEGFC
T3 sequence (looked up): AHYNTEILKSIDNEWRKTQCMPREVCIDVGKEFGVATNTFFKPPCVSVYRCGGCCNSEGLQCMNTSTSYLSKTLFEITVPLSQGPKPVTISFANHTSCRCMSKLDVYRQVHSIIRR
The description is as above. The protocol:
as §1

Experiment [4] has as its target T4, human VEGFD (human, UniProt O43915 89-205, limits assumed, biotinylated (sites not given)).
T4 construct: also called Biotin-HVEGFD
T4 sequence (looked up): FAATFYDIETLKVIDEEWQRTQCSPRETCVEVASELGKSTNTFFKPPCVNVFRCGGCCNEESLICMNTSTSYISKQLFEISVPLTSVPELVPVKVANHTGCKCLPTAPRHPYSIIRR
The description is as above. The procedure: as §1

In experiment [5] the target is T1, human VEGFA. Description: blocking ELISA: VEGFR2 coated, biotinylated VEGFA with antibody dilutions (FIG. 5). The protocol:
(§2) (4) After washing with PBST for 5 times, 100 uL SA-HRP (1:100000 dilution) was added and incubated at 37° C. for 1 hour. (5) After washing with PBST for 5 times, TMB chromochrome solution 100 uL was added, and developed at 37° C. for 10 min, 2M H₂SO₄ (50 uL/well) was added to terminate the reaction, and the absorption value was measured at 450 nm wavelength with a microplate reader.
(In an ELISA, binding on a coated surface is turned into a signal by an enzyme label.)

Experiment [6] has as its target T1, human VEGFA. Description: blocking ELISA: VEGFR2 coated, biotinylated VEGFA with antibody dilutions (FIG. 6). The protocol:
as §2

For experiment [7], the target named is T1, human VEGFA. Description: blocking ELISA: VEGFR1 coated, biotinylated VEGFA with antibody dilutions (FIG. 10). The procedure: (1) VEGFR1 protein was coated on an enzyme plate (1 ug/mL, 100 uL/well) and incubated at 4° C. overnight. […] (4) After washing with PBST for 5 times, 100 uL SA-HRP (1:100000 dilution) was added and incubated at 37° C. for 1 hour. (5) After washing with PBST for 5 times, TMB solution (100 uL) was added and developed at 37° C. for 10 min, 2M H₂SO₄ (50 uL/well) was added to terminate the reaction, and the absorption value at 450 nm wavelength was measured with a microplate reader.

Experiment [8] deals with T1, human VEGFA. Description: blocking ELISA: VEGFR2 coated, biotinylated VEGFA with antibody dilutions (FIG. 5); reference huNb24. The procedure:
as §2

The target of experiment [9] is T1, human VEGFA. The experiment can be described thus: blocking ELISA: VEGFR2 coated, biotinylated VEGFA with antibody dilutions (FIG. 1). The protocol: as §2
Experiment [10] concerns the target T1, human VEGFA. The experiment can be described thus: blocking ELISA: VEGFR2 coated, biotinylated VEGFA with antibody dilutions (FIG. 4). The procedure:
as §2

Residue numbers refer to the chain shown, from its start.

T1 sequence (P15692 other isoform, or with tags, fused parts or gaps limits assumed): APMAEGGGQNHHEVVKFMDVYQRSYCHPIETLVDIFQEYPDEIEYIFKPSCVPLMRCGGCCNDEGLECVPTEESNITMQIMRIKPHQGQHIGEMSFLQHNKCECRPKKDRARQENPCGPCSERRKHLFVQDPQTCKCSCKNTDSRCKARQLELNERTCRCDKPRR

B1: hu bi-Nb24(Y) (VHH)
chain: EVQLQESGGGLVQPGGSLRLSCTASGFTFDDPDVGWFRQAPGNECELVSTISKDGSTYYTDSVKGRFTISRDYAKNTVYLQMNSLRAEDTAVYYCAADSNPIAPIRTCLGWYNYWGQGTLVTVSSGGGGSGGGSEVQLQESGGGLVQPGGSLRLSCTASGFTFDDPDVGWFRQAPGNECELVSTISKDGSTYYTDSVKGRFTISRDYAKNTVYLQMNSLRAEDTAVYYCAADSNPIAPIRTCLGWYNYWGQGTLVTVSS
notes: Bivalent tandem VHH, one chain, expressed in Pichia pastoris, no Fc; also called humanized bivalent antibody expressed by the yeast; huNb24 bivalent
With B1, the “inhibitory effect on HUVEC cell proliferation, IC50” value in experiment [1] was found to be 0.0536 µg/mL. Besides, the binding result in experiment [2], in experiment [3] and in experiment [4] was “no binding (tested: 1 ug/mL)” in each case. For the same molecule, the IC50 in experiment [5] was 0.013 µg/mL; in [6], 0.022 µg/mL; in experiment [7] it was 0.168 µg/mL. The “fold increase of blocking activity against huNb24” value in [8] is above 3 times.

B2: Nb24 (Fc fusion)
chain: QVQLQESGGGSVQAGGSLRLSCTASGFTFDDPDVGWFRQAPGNECELVSTISKDGSTYYTDSVKGRFTISQDYAKNTVYLQMNSLKPEDTAVYYCAADSNPIAPIRTCLGWYNYWGQGTQVTVSS
notes: also called candidate antibody Nb24; antibody before humanization; not shown: Fc
For B2, the “inhibitory effect on HUVEC cell proliferation (CCK8, OD450), IC50” value in experiment [1] is 0.0296 µg/mL. The IC50 in experiment [9] came to 0.0149 µg/mL; in experiment [10], 0.045 µg/mL.

B3: huNb24 (Fc fusion)
chain: B2 chain with Q1E, S11L, A14P, Q71R, K86R, P87A, Q120L
notes: also called humanized antibody huNb24; antibody after humanization; not shown: Fc from the pFUSE vector
With B3, the IC50 in [10] came out at 0.038 µg/mL; in [5] it was 0.044 µg/mL.
